Results as given in publication PMC2893186 (BMC Structural Biology, 2010).

Biological target: the molecule itself
Assay: crystal structure; crystals grown from purified His-tagged ZHX2 HD2-3 (OPPF_2273), 20% PEG6000, 0.2 M LiCl, HEPES pH7; protein cleaved in the droplet, two molecules of HD2 in the asymmetric unit; 2.70 Å, data at 100 K

B1: ZHX2 HD2 (homeodomain 2 of human zinc-fingers and homeoboxes 2), proteolytic fragment derived from OPPF_2273 (ZHX2 HD2-3) (domain or fragment)
chain: RKKTKEQIAHLKASFLQSQFPDDAEVYRLIEVTGLARSEIKKWFSDHRYRCQRGIVHI
notes: ZHX2 (zinc-fingers and homeoboxes 2), human; homeodomain 2; Expressed as construct OPPF_2273 (HD2-3, aa 444-582); HD2-HD3 was cleaved by proteolysis after purification and only HD2 crystallized; Cys494 lies in the fragment; Homodimer in the crystal, with helix I domain-swapped and a disulfide bridge between the Cys494 of the two subunits; the deposited entry would show the ordered residues; also …
stoichiometry N: 2
